The experiment concerns the target Neisseria gonorrhoeae MtrE outer membrane channel (Neisseria gonorrhoeae) (UniProt Q51006). Nature of the experiment: crystal structure; sitting-drop vapor diffusion, 20% PEG 400, 0.2 M sodium acetate pH 4.6, 0.25 M MgSO4, 2% OG, 0.05% DDM; space group P6(3)22, one protomer per asymmetric unit; 3.29 Å.

Consider “Neisseria gonorrhoeae MtrE outer membrane channel (from UniProt Q51006 1-467) (natural protein)”, for which the stoichiometry N (usually the number of molecules, sites or subunits per partner or assembly) stood at 3.

The values above are taken from article PMC4046963.
